Test results published in US8034904B2, “Anti-IGF-I receptor antibody” (Immunogen Inc., priority 2002, dated 2011).

Tests used:
[1] = system: insulin receptor substrate-1 (IRS-1); assay: IGF-I-stimulated IRS-1 phosphorylation in MCF-7 cells (ELISA, associated p85 PI-3-kinase); assay type: cell-based, human
Method: In FIG. 5, MCF-7 cells were treated with 5 μg/mL antibody (EM164 or IR3) in serum-free medium for 2 h, followed by stimulation with 50 ng/mL IGF-I for 10 min at 37° C. Anti-IRS-1 antibody (rabbit polyclonal; Upstate Biotechnology) was indirectly captured by incubation with coated goat-anti-rabbit-IgG antibody on an ELISA plate, which was then used to capture IRS-1 from the cell lysate samples by overnight incubation at 4° C. The wells were then incubated with mouse monoclonal anti-p85-PI-3-kinase antibody (Upstate Biotechnology) for 4 h, followed by treatment with goat-anti-mouse-IgG-antibody-HRP conjugate for 30 min. The wells were then washed and detected using ABTS/H2O2 substrate (FIG. 5).

[2] = system: Colo 205 (colon) cells; assay: Growth and survival of Colo 205 cells (MTT assay); assay type: cell-based, human
Method: (§1) Several human tumor cell lines were tested in serum-free conditions for their growth and survival response to IGF-I. These cell lines were treated with EM164 antibody in the presence of IGF-I, IGF-II, or serum, and their growth and survival responses were measured using an MTT assay after 2-4 days. Approximately 1500 cells were plated in a 96-well plate in regular medium with serum, which was replaced with serum-free medium the following day (either serum-free RPMI medium supplemented with transferrin and BSA, or phenol-red free medium as specified by Dufourny, B. et al., 1997, J. Biol. Chem., 272, 31163-31171). After one day of growth in serum-free medium, the cells were incubated with about 75 μL of 10 μg/mL antibody for 30 min.-3 h, followed by the addition of 25 μL of IGF-I (or IGF-II or serum) solution to obtain a final concentration of 10 ng/mL IGF-I, or 20 ng/mL IGF-II, or 0.04-10% serum. In some experiments, the cells were stimulated first with IGF-I for 15 min before the addition of EM164 antibody, or both IGF-I and EM164 antibody were added together. The cells were then allowed to grow for another 2-3 days. A solution of MTT (3-(4,5)-dimethylthiazol-2-yl)-2,5-diphenyltetrazolium bromide; 25 μL of a 5 mg/mL solution in PBS) was then added and the cells were returned to the incubator for 2-3 h. The medium was then removed and replaced by 100 μL DMSO, mixed, and the absorbance of the plate was measured at 545 nm.

[3] = system: NCI-H838 (lung) cells; assay: Growth and survival of NCI-H838 cells (MTT assay); assay type: cell-based, human
Method: as §1

[4] = system: Human non-small cell lung cancer Calu-6 xenografts; assay type: in vivo
Source text: Human non-small cell lung cancer Calu-6 xenografts were established in immunodeficient mice by subcutaneous injections of 1×10^7 Calu-6 cells.

[5] = system: A-673 human rhabdomyosarcoma/Ewing's sarcoma xenografts; assay: A-673 xenograft in mice; conditions: mouse, in vivo

B1: EM164: murine anti-IGF-I receptor monoclonal antibody, IgG1 with kappa light chain, hybridoma ATCC PTA-4457; heavy SEQ ID NO:7, light SEQ ID NO:8 (antibody)
heavy: QVQLQQSGAELVKPGASVKLSCKASGYTFTSYWMHWVKQRPGQGLEWIGEINPSNGRTNYNEKFKRKATLTVDKSSSTAYMQLSSLTSEDSAVYYFARGRPDYYGSSKWYFDVWGAGTTVTVSS
light: DVLMTQTPLSLPVSLGDQASISCRSSQSIVHSNVNTYLEWYLQKPGQSPKLLIYKVSNRFSGVPDRFSGSGSGTDFTLRISRVEAEDLGIYYCFQGSHVPPTFGGGTKLEIKR
modifications: antibody heavy chain; antibody light chain
inhibition of IGF-1-stimulated IRS-1 phosphorylation ([1]; 5 μg/mL antibody 2 h, 50 ng/mL IGF-I 10 min, compared with IR3): more effective
agonistic activity on IRS-1 phosphorylation ([1]; in the absence of IGF-I): did not show any agonistic activity
Inhibition by EM164 antibody of IGF-I-stimulated growth in serum-free medium ([2]; 5-10 μg/mL EM164, 10 ng/mL IGF-I): 50%
% Inhibition by EM164 antibody of Growth/survival of cells in 1.25-10% serum ([2]; 5-10 μg/mL EM164, MTT or colony formation assay): Yes
% Inhibition by EM164 antibody of Growth/survival of cells in 1.25-10% serum ([3]; NCI-H838 (lung), 5-10 μg/mL EM164): 85-90%
Inhibition by EM164 antibody of IGF-I-stimulated growth in serum-free medium ([3]; NCI-H838 (lung), 5-10 μg/mL EM164, 10 ng/mL IGF-I): 100%
inhibition of serum-stimulated growth ([3]; NCI-H838 cells): greater than 80%
IGF-1- and serum-stimulated growth and survival of NCI-H838 ([3]; compared to a control anti-B4 antibody, FIG. 9): strongly inhibited
toxicity based on weights of the mice ([4]; EM164 6 injections of 0.8 mg/mouse, i.v.): No toxicity
growth of tumors ([4]; established 100 mm^3 Calu-6 xenografts, EM164 0.8 mg/mouse i.v. x6, taxol 15 mg/kg i.p. x5): significantly slowed
growth of established A-673 xenografts [5]: significant growth delay
